Measurements reported in US20220112292A1 (ALETA BIOTHERAPEUTICS, published 2022).
Values belong to the binder of their own block, whether it stands above or below them.

What was measured:
CLL-1 on U937 cells [1] = molecular target: T1, CLL-1 on U937 cells (human, UniProt Q5QGZ9 1-265); assay: flow cytometry on U937 cells, clone lysate, anti-cMyc-PE (Table 3 summary)
T1 construct: whole, on cells; also called CLEC12A; Clec12A
T1 sequence: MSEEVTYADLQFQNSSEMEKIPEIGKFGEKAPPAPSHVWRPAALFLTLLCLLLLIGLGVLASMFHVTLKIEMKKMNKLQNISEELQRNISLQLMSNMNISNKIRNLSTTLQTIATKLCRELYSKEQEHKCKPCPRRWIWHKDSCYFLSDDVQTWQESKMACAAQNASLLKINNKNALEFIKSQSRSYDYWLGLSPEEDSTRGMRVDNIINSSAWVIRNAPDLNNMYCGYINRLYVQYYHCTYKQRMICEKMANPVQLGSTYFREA

[2] = molecular target: T2, Clec12A-His (Sino Biological, 11896-H07H) (human, UniProt Q5QGZ9 65-265); assay: competition ELISA on coated CLEC12a-His, biotinylated VHH against unlabelled VHH
T2 construct: Bought soluble protein; also called soluble CLEC12a-His; Sino Biological Clec12A
T2 chain: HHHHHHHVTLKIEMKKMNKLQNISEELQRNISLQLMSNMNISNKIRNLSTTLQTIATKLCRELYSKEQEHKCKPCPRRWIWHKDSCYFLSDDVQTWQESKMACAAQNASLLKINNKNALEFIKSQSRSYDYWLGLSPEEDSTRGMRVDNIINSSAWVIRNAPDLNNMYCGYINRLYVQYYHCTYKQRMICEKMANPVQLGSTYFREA
Procedure: ELISAs were used to determine if the VHH clones recognized distinct or similar epitopes. […] The plate was blocked with 0.3% nonfat milk in TBS (200 ul/well) for 1 hr at RT. The plates were washed 3× with 1×TBST (0.1 M Tris, 0.5 M NaCl and 0.05% Tween-20). The test anti-CLEC12a VHHs were added at 10 ug/ml horizontally across the plate, 100 ul per well and incubated for 1 h. Without washing, the test anti-CLEC12a biotinylated VHHs were added at 0.2 ug/ml vertically down the plate, 100 ul per well and incubate for 1 h. After being washed 3× with 1×TBST, HRP-conjugated streptavidin (Pierce #21130) at 1:2000 (100 ul/well) was added, followed by incubation at RT in the dark for 1 hr. For detection, 1-Step Ultra TMB-ELISA reagent (Thermo Fisher #34028) was added at 100 ul per well and read at 450 nm. […] The 1H1 VHH was distinct from these, and 2C2 was intermediate. Results are depicted in FIGS. 7A-7D.

CLL-1 on U937 cells [3] = molecular target: T1, CLL-1 on U937 cells; assay: flow cytometry on U937 cells, a-cMyc then a-msIgG-PE
Procedure: (§1) Additional VHH clones were assessed for binding to U937. […] Clones tested: 1A10: stock=0.9 mg/ml; 1B1: stock=0.9 mg/ml; […]: stock=1.5 mg/ml; 2C8: stock=0.9 mg/ml; 1D2: stock=0.06 mg/ml. Previous clone as control 2F5: stock=0.5 mg/ml.

CLL-1 on U937 cells [4] = molecular target: T1, CLL-1 on U937 cells; assay: flow cytometry on U937 cells, clone at 3ug/ml, a-Myc then a-mIgG-PE; no clone 0.6% and 64,740.2, unstained 0.0% and 4,885.0
Procedure: as §1

CLL-1 on U937 cells [5] = molecular target: T1, CLL-1 on U937 cells; assay: flow cytometry on U937 cells, 3x serial dilutions from 3 ug/ml, anti-His-PE
Procedure: (§2) U937 cell binding by VHH clones was assessed using varying doses to determine EC50s. Briefly, the method included: VHH clones (3 ug/ml as starting conc./test, with 3× serial dilutions) in FACS buffer were added to Fc blocked U937 or 293T-CLL1 cells (2.5×10\hat{ }5), the mixtures were incubated for 30 min at 4° C., then washed twice with FACS buffer by spinning at 500G for 2 min; anti-His-PE was added to cells, the mixture was incubated for 30 min at 4° C. and washed twice with FACS buffer by spinning at 500G for 2 min; 1% PFA (Paraformaldehyde) in PBS was added to cell pellet to fix the cells, followed by FACS analysis. VHH clones tested: 1B5: stock=1.6 mg/ml; 1H1: stock=1.9 mg/ml; 1G6: stock=1.1 mg/ml; 2F3: stock=1.45 mg/ml; 2F5: stock=0.5 mg/ml; 2H3: stock=2 mg/ml.

[6] = molecular target: T3, Clec12A (ABclonal, RP01018) (human, UniProt Q5QGZ9-1 75-275, limits assumed); assay: ELISA: coated with clec12a, then 2H3, anti-myc, HRP-anti-mIgG; OD405
T3 construct: Bought recombinant protein; also called ABclonal Clec12A; Clec12A from AbClonal
T3 sequence: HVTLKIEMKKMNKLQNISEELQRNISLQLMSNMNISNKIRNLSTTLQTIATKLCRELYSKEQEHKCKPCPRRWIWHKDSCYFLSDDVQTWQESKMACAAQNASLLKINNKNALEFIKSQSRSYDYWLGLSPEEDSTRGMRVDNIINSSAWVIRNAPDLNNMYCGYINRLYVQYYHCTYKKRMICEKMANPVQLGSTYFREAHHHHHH
Procedure: (§3) The ability of VHH clones to recognize commercially available recombinant Clec12a proteins was tested by ELISA. […] The plate was blocked with 200 μl/well 0.3% non-fat milk in Tris buffered saline (TBS) for 1 hr at room temperature (RT). Then, the plates were washed 3× with wash buffer (1×TBST: 0.1 M Tris, 0.5 M NaCl, 0.05% Tween 20). Next, 100 μl of the 2H3 VHH-Myc-His (SEQ ID NO: 15, purified by ProSci), was added starting at 5 μg/ml with 3 fold dilutions, and incubated for 1 h at RT. The plate was washed 3× with wash buffer and 100 μl of 1 ug/ml anti-Myc antibody (NOVUS/Fisher, NBP2-37822) was added per well. The plate was incubated for 1 h at RT and then washed 3× with wash buffer. Following the wash step, 100 μl of a 1:2000 dilution of HRP-anti-mIgG (Jackson ImmunoResearch, 115-035-062) was added per well and incubated at RT in the dark for 1 hr. […] This experiment was repeated twice.

[7] = molecular target: T2, Clec12A-His (Sino Biological, …); assay: ELISA, upper graph (first experiment): coated with clec12a, then 2H3, anti-myc, HRP-anti-mIgG; OD405
Procedure: as §3

[8] = molecular target: T2, Clec12A-His (Sino Biological, …); assay: ELISA, lower graph (second experiment): coated with clec12a, then 2H3, anti-myc, HRP-anti-mIgG; OD405
Procedure: as §3

CLL-1 on U937 cells [9] = molecular target: T1, CLL-1 on U937 cells; assay: flow cytometry on U937 cells, % binding against ng/ml, detected with a-His-PE; EC50 of the fitted curve
Procedure: as §2

CLL-1 on U937 cells [10] = molecular target: T1, CLL-1 on U937 cells; assay: flow cytometry on U937 cells, VHH in 3-fold dilutions, detected with a-His-PE; percent of cells positive
Procedure: as §2

CLL-1 on U937 cells [11] = molecular target: T1, CLL-1 on U937 cells; assay: flow cytometry on U937 cells, VHH at 3 ug/ml, detected with a-His-PE; a-His-PE alone 1.1% and 5,576.5, unstained 0.6% and 5,793.5
Procedure: U937 cell binding by VHH clones was assessed. Briefly, the method included: U937 cells (2.5×10\hat{ }5) were Fc blocked (human Fc block, BD Cat. #BDB564220) for 10 min at room temperature, then washed once with FACS buffer (PBS+1% BSA+0.1% Sodium Azide) by spinning at 500G for 2 min; VHH clones (3 μg/ml as final conc) in FACS buffer were added to the cell pellets and incubated for 30 min at 4° C., then washed twice with FACS buffer by spinning at 500G for 2 min; anti-His-PE (R&D Systems, Cat. #IC050P) was added to cells; the mixture was incubated for 30 min at 4° C. and washed twice with FACS buffer by spinning at 500G for 2 min; 1% PFA (Paraformaldehyde) in PBS was added to cell pellet to fix the cells, followed by FACS analysis. VHH clones tested: 1B5: stock=1.6 mg/ml; 1H1: stock=1.9 mg/ml; 1G6: stock=1.1 mg/ml; 2F3: stock=1.45 mg/ml; 2F5: stock=0.5 mg/ml; 2H3: stock=2 mg/ml. As shown in FIGS. 2A-2C, binding of clones 1H1, 1G6, 2F5 and 2H3 to U937 cells was detected with anti-His-PE; very little binding of clones 1B5 and 2F3 to U937 cells could be detected by anti-His-PE.

% FACS positive (CLL-1 on U937 cells [1]): 77.2%
binding result [2]: binds
B1: VHH clone 2C2 (VHH)
VHH: QVQLQQSGGGLVQAGGSLTLSCAATGRTIDNGAMAWFRQAPGKQRELVAAINWSGGATFYTDSVKYRFTISRDNVRHTLDLQMTSLKPEDTTIYFCASRRGVDLRRNSYEYDYWGRGTLVTVSS
notes: Includes myc and His tags

binding result (CLL-1 on U937 cells [3]): no binding (tested: 3ug/ml)
% of This Plot (R3) (CLL-1 on U937 cells [4]): 6%
Mean FL2-A (R3 gate) (CLL-1 on U937 cells [4]): 12300
B2: 1C6 (VHH)
VHH: QVQLQESGGALVQAGGSLRLSCAASGLTFSNYAMGWFRQAPGKEREFVAAINWSGGTTDYATSVKGRFTISRDNAKNTVYLQLNSLKPEDTAVYYCAASYRLRITVVVTPDEYHYWGQGTLVTVSS
notes: also called VHH clone 1C6

EC50 (CLL-1 on U937 cells [5]): 0.35 nM
% FACS positive (CLL-1 on U937 cells [1]): 94.3%
binding result [6]: no binding (tested: about 5000 ng/ml)
EC50 [7]: 0.0661 µg/mL
EC50 [8]: 0.0625 µg/mL
EC50 (CLL-1 on U937 cells [9]): 0.00547 µg/mL
% binding at 1.4 ng/ml (CLL-1 on U937 cells [10]): 6.2%
% binding at 4.1 ng/ml (CLL-1 on U937 cells [10]): 33.5%
% binding at 12.3 ng/ml (CLL-1 on U937 cells [10]): 70.5%
% binding at 37.0 ng/ml (CLL-1 on U937 cells [10]): 89%
% binding at 111.1 ng/ml (CLL-1 on U937 cells [10]): 89.4%
% binding at 333.3 ng/ml (CLL-1 on U937 cells [10]): 89.9%
% binding at 1000 ng/ml (CLL-1 on U937 cells [10]): 90.3%
% binding at 3000 ng/ml (CLL-1 on U937 cells [10]): 88.7%
% of This Plot (R3 PE+) (CLL-1 on U937 cells [11]): 93.8%
Mean FL2-A (R3 gate) (CLL-1 on U937 cells [11]): 8130
B3: VHH clone 2H3 (VHH)
VHH: QVQLQESGGGLVQAGGSLRLSCVASGSIRSINVMGWYRQAPGKQRELVAACASDGNTYYADSVKGRFTISRDNAEKTVYLQMNNLKPDDTAVYYCDANSRGNYYSGQGTQVTVSS
notes: Includes myc and His tags; also called 2H3 VHH-Myc-His; VHH 2H3
